Laboratory results as given in patent US9617326B2, “RTRAIL mutant and monomethyl auristatin E conjugate thereof” (Zhejiang University, priority 2012, dated 2017).

Tested on: HEK293 cells
Assay: In vitro killing/toxicity (CCK-8) on normal HEK293 cells
Format: cell-based
Conditions: 32-1000 ng/mL, 96 hours
Description: 4 types of cells were selected to measure in vitro anti-tumor activity of the rTRAIL mutant and the MMAE conjugate: TRAIL sensitive type (NCI-H460), TRAIL insensitive type (Hela), TRAIL resistant type (MCF-7) and normal cells (HEK293). All of these 4 types of cells had TRAIL death receptor on their surfaces.
Hereinafter, TRAIL sensitive type NCI-H460 cell was taken as an example to give detailed description of the test procedure, including the following steps:
(1) Digesting the NCI-H460 cells into individual cells, followed by diluting to 1×10^4 cells/mL, spreading the cells on 96-well plate (100 μL for each well), and culturing the cells for 24 hours under normal condition.
(2) Diluting N109C, N109C-vcMMAE and S96C-vcMMAE with culture medium respectively, and adding them into the cell plate with final concentrations of 32, 63, 125, 250, 500, 1000 ng/mL for serving as the test groups, while using standard TRAIL (114-281) as the positive control group, using the buffer (used for dissolving the test sample, diluted with the culture medium in a same manner) as the negative control group, and using the culture medium (without adding any solution) as the blank control group. All the control groups and test groups were tested in triplicate. […]

## TRAIL (114-281): standard TRAIL (114-281) used as the positive control group
  toxicity to normal cells: considerably low toxicity
